The test addresses T1, nicotinamide phosphoribosyltransferase (NAMPT) (Homo sapiens (Human), UniProt P43490 1-491).
T1 construct: also called PBEF; visfatin
As to the kind of experiment: method not stated.

Positions count from the first letter of the chain named.

T1 sequence (P43490 whole entry): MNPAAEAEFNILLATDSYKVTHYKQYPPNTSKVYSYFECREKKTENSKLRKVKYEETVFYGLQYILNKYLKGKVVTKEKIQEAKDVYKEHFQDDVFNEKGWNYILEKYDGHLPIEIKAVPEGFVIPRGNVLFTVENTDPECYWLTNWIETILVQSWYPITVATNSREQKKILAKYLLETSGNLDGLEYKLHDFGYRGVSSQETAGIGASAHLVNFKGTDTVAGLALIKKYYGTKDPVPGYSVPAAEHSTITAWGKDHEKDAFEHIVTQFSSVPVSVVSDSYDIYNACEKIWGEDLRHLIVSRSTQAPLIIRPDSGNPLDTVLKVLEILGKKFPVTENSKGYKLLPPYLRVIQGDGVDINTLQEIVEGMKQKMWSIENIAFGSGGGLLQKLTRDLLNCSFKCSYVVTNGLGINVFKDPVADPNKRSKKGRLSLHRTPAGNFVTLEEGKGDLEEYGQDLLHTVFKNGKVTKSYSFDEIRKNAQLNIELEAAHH

B1: murine anti-NAMPT mAb AL303 (antibody, V domains shown)
VH: QVQLQQPGADLVKPGASVKLSCKASGYTFTSYWMQWVKQRPGQGLEWIGEIDPSNSYTNYNQKFRGKATLTVDPSSSTAYMQLSSLTSEDSAVYYCARGGYWGQGTTLTVSS
VL: DIVMTQAAFSNPVTLGTSASISCRSSKSLLHSNGITYLYWYLQKPGQSPQLLIYQMSNLASGVPDRFSSSGSGTDFTLRISRVEAEDVGVYYCVQNLELPYTFGGGTKLEIK
As for B1, the affinity, expressed as Kd, was 6 nM.

B2: murine anti-NAMPT mAb AL310 (antibody, V domains shown)
VH: QVQLQQSGAESVMPGASVKLSCKASGYTFTSYWMHWVKQRPGQGLEWIGEIDPSDSYTNYNQKFKGKSTLTVDKSSSTAYMQLSSLTSEDSAVYYCAKSNYVVPWYFDVWGTGTTVTVSS
VL: B1 VL with V94A, Y101W
As to B2, the affinity, expressed as Kd, was 9 nM.

(Values after patent publication US20200132689A1 (ARIZONA BOARD OF REGENTS ON BEHALF OF THE UNIVERSITY OF …, published 2020).)
